According to US20210380664A1 (AICURIS ANTI INFECTIVE CURES, published 2021):

Biological target: HCMV virus particles, strain TB40/E
Experiment: cell-based or functional assay

B1: PDGFR-alpha derived 40mer peptide GT40 (peptide)
peptide: GRHIYIYVPDPDVAFVPLGMTDYLVIVEDDDSAIIPCRTT
In the case of B1, the “EC50 of inhibition of infection of HFFs by peptide” value is reported as 2000 nM.
